Assay results as given in the supplement of paper PMC7125110.
± gives the standard error. For part of these data: Fewer inactive variants are shown than the library holds.

B1: glmS ribozyme (parent)
chain: AUAAAAGCGCCAGAACUACAGAAAUGUAGUUGACGAGGAGGAGGUUUAUCGAAUUUUCGGCGGAUGCCUCCAAA

Experiments:
Settings in all cases: with glucosamine-6-phosphate
glucosamine-6-phosphate [1] = variants of: B1; assay: kcat; higher = faster cleavage; RNA array
Procedure, shortened: (§1)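 Sequenced MiSeq chips were the platform: E. coli RNA polymerase transcribed barcoded ribozyme variants on them in situ, and a hybridised Cy3 probe tracked these at 37 °C. After glucosamine-6-phosphate (40 μM to 10 mM) in HEPES/KCl/Mg(OAc)2 buffer was flowed in, tiles were imaged over ~14 h. Signals normalised to baseline and to non-cleaving reference variants were reduced to per-tile medians and fit to one- or two-exponential decays to obtain kobs. kcat and KM were derived through weighted Michaelis–Menten fits across concentrations.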

glucosamine-6-phosphate [2] = variants of: B1; assay: self-cleavage kobs at 40 uM GlcN6P; higher = faster cleavage; RNA array
Procedure, shortened: as §1

glucosamine-6-phosphate [3] = variants of: B1; assay: self-cleavage kobs at 640 uM GlcN6P; higher = faster cleavage; RNA array
Procedure, shortened: as §1

glucosamine-6-phosphate [4] = variants of: B1; assay: self-cleavage kobs at 2500 uM GlcN6P; higher = faster cleavage; RNA array
Procedure, shortened: as §1

glucosamine-6-phosphate [5] = variants of: B1; assay: self-cleavage kobs at 10000 uM GlcN6P; higher = faster cleavage; RNA array
Procedure, shortened: as §1

glucosamine-6-phosphate [6] = variants of: B1; assay: KM; higher = weaker cofactor use; RNA array
Procedure, shortened: as §1

glucosamine-6-phosphate [7] = variants of: B1; assay: self-cleavage kobs at 160 uM GlcN6P; higher = faster cleavage; RNA array
Procedure, shortened: as §1

Row | Variant | kcat (glucosamine-6-phosphate [1]) | self-cleavage kobs at 40 uM GlcN6P (glucosamine-6-phosphate [2]) | self-cleavage kobs at 640 uM GlcN6P (glucosamine-6-phosphate [3]) | self-cleavage kobs at 2500 uM GlcN6P (glucosamine-6-phosphate [4]) | self-cleavage kobs at 10000 uM GlcN6P (glucosamine-6-phosphate [5]) | KM (glucosamine-6-phosphate [6]) | self-cleavage kobs at 160 uM GlcN6P (glucosamine-6-phosphate [7])
1 | G60A | 2.13e-05 ± 1.7e-06 s⁻¹ | < 1e-05 s⁻¹ | < 1e-05 s⁻¹ | 2.19e-05 ± 2.6e-06 s⁻¹ | 1.98e-05 ± 1.2e-06 s⁻¹ | – | –
2 | C50A C71U | 1.86e-05 ± 6.3e-07 s⁻¹ | – | – | – | 1.86e-05 ± 8.6e-06 s⁻¹ | 296 ± 82 µM | –
3 | A15U U47G | 0.000703 ± 0.00012 s⁻¹ | 5.1e-05 ± 1.1e-05 s⁻¹ | 0.000238 ± 2.7e-05 s⁻¹ | 0.000473 ± 5.8e-05 s⁻¹ | 0.000653 ± 7.7e-05 s⁻¹ | 1160 ± 360 µM | 8.04e-05 ± 1.3e-05 s⁻¹
4 | C16U U56G C68G | 5.74e-05 ± 1.5e-05 s⁻¹ | – | 9.61e-05 ± 2.8e-05 s⁻¹ | – | 6.1e-05 ± 1.3e-05 s⁻¹ | – | –
5 | A15G A39C | 0.0119 ± 0.0054 s⁻¹ | 0.000149 ± 1.5e-05 s⁻¹ | 0.0011 ± 0.00014 s⁻¹ | 0.00446 ± 0.00072 s⁻¹ | 0.00811 ± 0.00088 s⁻¹ | – | 0.000242 ± 6.6e-05 s⁻¹
6 | C50U C71A | 2.1e-05 ± 3.7e-06 s⁻¹ | – | 2.36e-05 ± 1.1e-05 s⁻¹ | 2.3e-05 ± 8.6e-06 s⁻¹ | – | – | –
7 | A64G U65A | 0.00547 ± 0.00084 s⁻¹ | 0.000129 ± 2.2e-05 s⁻¹ | 0.00133 ± 0.00024 s⁻¹ | 0.00387 ± 0.00065 s⁻¹ | 0.00429 ± 0.00072 s⁻¹ | 1850 ± 410 µM | 0.000381 ± 7.6e-05 s⁻¹
8 | G32C C50U | < 1e-05 s⁻¹ | – | < 1e-05 s⁻¹ | – | < 1e-05 s⁻¹ | – | –
9 | U55C A64G | 0.000719 ± 0.00011 s⁻¹ | 4.14e-05 ± 1.2e-05 s⁻¹ | 0.000233 ± 3e-05 s⁻¹ | 0.000568 ± 7e-05 s⁻¹ | 0.000595 ± 6.1e-05 s⁻¹ | 1350 ± 370 µM | 6.7e-05 ± 1e-05 s⁻¹
10 | U30C U45A | 0.000449 ± 4.9e-05 s⁻¹ | – | 0.000176 ± 3.8e-05 s⁻¹ | 0.000235 ± 8.7e-05 s⁻¹ | 0.000418 ± 6e-05 s⁻¹ | 1150 ± 280 µM | 5.04e-05 ± 1.7e-05 s⁻¹
11 | U30C U45C | 3.55e-05 ± 1.6e-05 s⁻¹ | < 1e-05 s⁻¹ | – | 4.35e-05 ± 2.1e-05 s⁻¹ | – | – | –
12 | A15U U57G | 1.7e-05 ± 6.8e-06 s⁻¹ | – | – | – | – | – | –
13 | G66C C68U C71G | < 1e-05 s⁻¹ | – | – | – | – | – | < 1e-05 s⁻¹
14 | A6C C50G | 2.11e-05 ± 7.4e-06 s⁻¹ | – | – | – | – | – | –
15 | C11A U31C | 7.57e-05 ± 7.2e-06 s⁻¹ | – | – | 5.09e-05 ± 1.4e-05 s⁻¹ | 6.39e-05 ± 1.1e-05 s⁻¹ | 1620 ± 610 µM | –
16 | A39U C70A | 0.000394 ± 9.4e-05 s⁻¹ | 5.15e-05 ± 9.3e-06 s⁻¹ | 0.000187 ± 2.3e-05 s⁻¹ | 0.000403 ± 6.9e-05 s⁻¹ | 0.000382 ± 5.4e-05 s⁻¹ | 558 ± 250 µM | 7.96e-05 ± 1.2e-05 s⁻¹
17 | A14U C68A | 2.98e-05 ± 1e-05 s⁻¹ | – | – | 3.98e-05 ± 1.4e-05 s⁻¹ | – | – | –

Row | Variant | kcat (glucosamine-6-phosphate [1]) | self-cleavage kobs at 40 uM GlcN6P (glucosamine-6-phosphate [2]) | self-cleavage kobs at 640 uM GlcN6P (glucosamine-6-phosphate [3]) | self-cleavage kobs at 2500 uM GlcN6P (glucosamine-6-phosphate [4]) | self-cleavage kobs at 10000 uM GlcN6P (glucosamine-6-phosphate [5]) | KM (glucosamine-6-phosphate [6]) | self-cleavage kobs at 160 uM GlcN6P (glucosamine-6-phosphate [7])
18 | C16U G59A | 6.33e-05 ± 4e-06 s⁻¹ | – | – | 4.86e-05 ± 1.2e-05 s⁻¹ | 5.59e-05 ± 6.3e-06 s⁻¹ | 1180 ± 390 µM | –
19 | G41U A42U | 0.00136 ± 0.00056 s⁻¹ | 9.43e-05 ± 1.1e-05 s⁻¹ | 0.000464 ± 5.5e-05 s⁻¹ | 0.00119 ± 0.00014 s⁻¹ | 0.00108 ± 0.00015 s⁻¹ | – | 0.000106 ± 1.9e-05 s⁻¹
20 | U46C U56C | 0.000648 ± 3.9e-05 s⁻¹ | – | 0.000246 ± 7.8e-05 s⁻¹ | 0.000514 ± 0.00014 s⁻¹ | 0.000596 ± 7.5e-05 s⁻¹ | 866 ± 190 µM | –
21 | C70A C71A | 5.3e-05 ± 3.2e-06 s⁻¹ | – | 4.65e-05 ± 9.4e-06 s⁻¹ | 4.82e-05 ± 7.4e-06 s⁻¹ | 5.11e-05 ± 9.4e-06 s⁻¹ | 181 ± 74 µM | –
22 | G66C C71U | 0.000716 ± 9.4e-05 s⁻¹ | – | 0.000335 ± 5e-05 s⁻¹ | 0.000494 ± 9.6e-05 s⁻¹ | 0.000631 ± 0.00011 s⁻¹ | 975 ± 220 µM | 9.54e-05 ± 1.7e-05 s⁻¹
23 | C34G C70U | < 1e-05 s⁻¹ | – | – | – | < 1e-05 s⁻¹ | – | –
24 | A52U A64G C68U | 6.78e-05 ± 4.7e-06 s⁻¹ | – | – | 5.62e-05 ± 2.2e-05 s⁻¹ | 6.09e-05 ± 2.2e-05 s⁻¹ | 741 ± 230 µM | –
25 | U47G C58A | 0.000264 ± 4e-05 s⁻¹ | – | 5.5e-05 ± 1.2e-05 s⁻¹ | 0.000177 ± 4.2e-05 s⁻¹ | 0.000208 ± 3.2e-05 s⁻¹ | 2260 ± 690 µM | –
26 | U54C C58A | 0.000427 ± 0.0001 s⁻¹ | – | 6.93e-05 ± 1.1e-05 s⁻¹ | 0.000153 ± 2.3e-05 s⁻¹ | 0.000361 ± 7.7e-05 s⁻¹ | 3720 ± 1300 µM | –
27 | C16U G40U | 0.00189 ± 0.00089 s⁻¹ | 0.000134 ± 2e-05 s⁻¹ | 0.00095 ± 0.00016 s⁻¹ | 0.00106 ± 0.00024 s⁻¹ | 0.00317 ± 0.0006 s⁻¹ | – | 0.000209 ± 5e-05 s⁻¹
28 | U31C U65G | 0.0016 ± 0.00034 s⁻¹ | – | 0.000198 ± 2.5e-05 s⁻¹ | 0.000465 ± 7.2e-05 s⁻¹ | 0.00108 ± 0.00013 s⁻¹ | 5250 ± 1700 µM | –
29 | G13A U57A | 5.51e-05 ± 4.2e-06 s⁻¹ | – | – | 4.76e-05 ± 1.5e-05 s⁻¹ | – | 370 ± 130 µM | –
30 | C16U A53U G66A C67U | 0.00153 ± 0.0004 s⁻¹ | 8.2e-05 ± 1.8e-05 s⁻¹ | 0.000671 ± 0.00013 s⁻¹ | 0.000968 ± 0.00031 s⁻¹ | 0.00215 ± 0.00061 s⁻¹ | 755 ± 320 µM | –
31 | C16G A33C | 4.59e-05 ± 3.9e-06 s⁻¹ | < 1e-05 s⁻¹ | – | 3.96e-05 ± 1.6e-05 s⁻¹ | 4.28e-05 ± 1.3e-05 s⁻¹ | – | –
32 | A14G A48C | 0.00102 ± 4.5e-05 s⁻¹ | – | 0.000205 ± 8.1e-05 s⁻¹ | 0.000509 ± 6.7e-05 s⁻¹ | 0.000803 ± 7.7e-05 s⁻¹ | 2630 ± 260 µM | 5.84e-05 ± 1.5e-05 s⁻¹
33 | A39C C58U | 1.02e-05 ± 1.6e-06 s⁻¹ | – | – | – | – | – | –
34 | U49C C71G | 1.02e-05 ± 5.3e-07 s⁻¹ | – | – | – | – | – | –
